Experimental findings from PMC4749553 (2015) are described below.

In the assay the target is T1, His6-Tim44(43–263) (Saccharomyces cerevisiae (strain ATCC …, UniProt Q01852)).
T1 chain: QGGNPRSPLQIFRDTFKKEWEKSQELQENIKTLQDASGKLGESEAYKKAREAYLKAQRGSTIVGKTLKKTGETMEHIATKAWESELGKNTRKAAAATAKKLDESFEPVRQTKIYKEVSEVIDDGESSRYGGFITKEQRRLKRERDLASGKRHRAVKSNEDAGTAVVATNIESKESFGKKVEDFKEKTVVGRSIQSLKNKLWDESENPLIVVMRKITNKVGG
Briefly: Ni-NTA pull-down, Coomassie-stained SDS-PAGE.

B1: Tim44(211–431) (protein)
chain: NIESKESFGKKVEDFKEKTVVGRSIQSLKNKLWDESENPLIVVMRKITNKVGGFFAETESSRVYSQFKLMDPTFSNESFTRHLREYIVPEILEAYVKGDVKVLKKWFSEAPFNVYAAQQKIFKEQDVYADGRILDIRGVEIVSAKLLAPQDIPVLVVGCRAQEINLYRKKKTGEIAAGDEANILMSSYAMVFTRDPEQIDDDETEGWKILEFVRGGSRQFT
For B1, the binding result is “no binding”.
